The source of these data is a protein production outcome set (Wang et al. 2014).

The nature of this series: label from the status in PepcDB records.
On to “MIKHESSQPLRVAVAQCRIDWEDKHANLRRMERLAEETAGMADVLFFPEMMTTGFSMNVQALAEPFEEGETIMSLKRVTARHGLALSATMAVRENGKFYNRAYFVTPEGEVFHQDKRHLFRVGGEHEVMTPAQERRIFNY”, for which the protein production entry is “failed”.

For “MIKKARKFIPFFLIGSLLAEDNGWYMSVGYQIGGTQQFINNKQLLENQNIINSVTQSAINIAGPTTGLITLSSQTVIDALGYGVSNTVGNQLEGISNILNQIGKRKDFYSSRQISSISQQIIGLKGSSDPLKAHSSQITAKLLSNTQSAFDQGIALSTNIISSINSLNPSNNTQEVKKQLQNTAQSMTELLQQIEHSITKTTSTTYAQSLLSNLTDAVNASSNNTAYVSALVNALNTLGVGVFPTTTTTHVVLNPPGQVVFYPTNSILGSTSSNSNNQQQYNNTLLMNTLQGTLSANTQNNPNGCANQVQCLEQFIQNLAPLAATPTSNNQANQQVQAIAQKLQSVAINTLDNNAINNTTYNLNNLHNALNFQAYESTIEQYNNALKQISWISFTEPKNLLKNTSNNYQIGTVTNAQGQNISAYDCMTATGSLSSNASSGISCSATSSTSSTNSFDNSLVATSKVQTINGKEQIGVNSFNLVSQVWSVYNSLKTSEENLQKNANILCANGTQSGTSSCNSSSGGLSISGNAQLQNILSPTSGTTTNTQAKSNAPKLKAMVVVNNEEEAKTANLAQSSGTTTQSPNSTVMGALNTVLQNVSNFQQSIQNAFQNQESNIQAWANAIYNTNGSQSQEMTPNNNQDLRIQLRANFYQLINTINQQVPTDMNALINQSQQTQQTSGSASNNNACASGMSGSNGNWCYQQWSDSKAYYSGLQSALGYQTQATTQSGSNGGNSITYNVQQITLTSNGLLNQIITNLKSVNGGNGASGTGSGNGTSQINTAYQMLTDASDGKLGTYSSSSGSNNGYTPCNSTNGSNKTSGNNCYEPNKQQNATTATATTDSNLQKVYNDAQKIANIIASSGNNKGVENGLKQFFEALKNNSSSLSNLCGNGSSGSSGTTCSGWLINLLGAIPTNGVSDTNNLINLLTEFIKTAGFIQNNDSSVSTSLTSAFQAITSAISQGFQALQNDISPNAILTLLQEITSNTTTIQSFSQTLRQLLGDKTFFMAQQKLIDAMINARNQVQNAQNQANNYGSQPVLSQYAAAKSTQHGMSNGLGVGLGYKYFFGKARKLGLRHYFFFDYGFSEIGLANQSVKANIFAYGVGTDFLWNLFRRTYNTKALNFGLFAGVQLGGATWLSSLRQQIIDNWGSANDIHSTNFQVALNFGVRTNFAEFKRFAKKFHNQGVISQKSVEFGIKVPLINQAYLNSAGADVSYRRLYTFYINYIMGF”, the protein production entry is on record as “failed”.

For the sequence “MIKKIHRWLPLLVLIGLLVLFFSLHLDKYLSFNALRENHALLIAWTQTHYFIAPLIFIVFYTTAVAISIPGAVLLTLTGGFLFGVFWGVLFVVISATLGATILFFAVRTALGDWFAQKASGWIERMRQGFQHNAFSYLVTLRLIPLFPFWAVNIVPALLNIRAKTFITATFIGIIPGTTVYVMVGNGLSQIFAANQTPNLGIIFELQILGPLLALAVLSLMPVLYQFSTRKHQNHHSFSDISRVINCDLAIIGGGAGGLSLASGCSQLGLKVVLVESGKMGGDCLNYGCIPSKSLLAAAKTFYYAKHATHFGVHTEAIKINFQQVMQHVHQIIDNISEHDSVQRFESLGVQVIKQVGKFLNPDTLQAGDSIIKAKRFVVATGSSPFIPPIPGLDAVSYFTNETIFDLKEQPEHLIVIGGGPIGCELAQAFAMLGSKVTLLEGLNLLPKDDPDCVAVLRTQMKSMSIVIHEQIEITQINSHPDTGISVCFEFQNTQFTITASHLLIATGRRANVKPLDLEKAGVKLTSKGVEVNKYLQTSNKKIYALGDVTGLYQFTHMASYQASIVLRNIVFKLPSKVDYRAIPWVTYTDPELAHVGIGVSDALKHPDAQIIEWPFVDNDRAQTERSLNGKIKIITDKKARILGVTIVGPHAGELILPWVMAIREKKNLRSFTDVIVPYPTLSEISKRVAGSFYAPKLFSNKTRMLVRWLQKIG”, the protein production result is given as “failed”.

As to “MIKLQLKLQGSVSVQVNAGPLAYARAFLDDTNTKRYPDNKVKLLKEVFRQFVEACGQALAVNERLIKEDQLEY”, the protein production entry is “failed”.

As for “MIKLSSITAHILDIWHRRNSRSYIAHLRSLGIRIGDGCIFRDPLTTRIDVSRPALVSIGSNVDMNTYFQILTHDWASFVFRNKYHDFVNSSGRVEIGSNIYIGTNVIVLRGVTIGDNCVIGAGSVVTHDIPANSVAVGAPCRVVCSLDEYYQKRKVKGLQEAVEHVKAFQKNFGRDPLPHELYEEFIYFVDASNVEEYERQGVPVRSQLSIAYGDWLSTHKAKFSSYDDFIQYVNQKMNETAES”, the protein production entry is recorded as “failed”.

As to “MIKQVNPHFKEFLFDWNQKFQFLVGGYGSSKSYHVALKIVLKLLREKRTALVIREVYDTHRDSTFSLFDELVSDLKLDHIVRCVSSPMQIRFSNGSRIIFKGMDKPAKLKSINNISLIWIEECSEVKYEGFKELLGRLRHPTLPLHMILSTNPVGEDNWTFKHFFKDDREKRFVLDDKELYEKRIIVSNDTYYHHSTADDNLFLPESYVQQLEELKEYDPDLYRIARKGHFGVNGIRVLPQFEERPHEEVMTAISNINRPLKRVGMDFGFVESYNAVVRVAVDHEKKYLYIYWEYYKNGLTDDKTAEELKEFAETKELIKADSAEPKTIRYFQQHGFNMVGARKYQGSRLQYTKKIKRFRKIICSDRCENTIYELKPLAYATDKLGNIIEDEFTIDPHTLSAIWYALDDYEVTDLKEESKGRPQRSRPGRR”, the protein production result is “not failed”.

“MIKSSLPPILTSQIGPDSIELRLLVAADLEYFNGHFPEQAVLPGVTQLDWAVRLGCEHFGYSAAVANLEVLKFQQLILPGQEVTLVISHNATKEKLTFAYSDGDHRYASGRISFASKQDDGAAQ”: the protein production entry is reported as “failed”.

Consider “MIKVAESRTSWVASVFGLAALYVLGTVTPLEDIDSHLGGVNVTNLLQAIFALLAIFFFNDSVRRLANVPVVRWTYYAPLLSIPVMIASFSLIADKAPTAADFIDTRMDQLATAVYSGTYMFALLFTVLRIIYMLRHNAKGPYATFSAGLMVVAVAVSCHIAYVVLYYFSPWDDFARAIGTWFDRLFYIGLTVTAAGWLILFLSKQLPRLRLWMIDALWLTAMRMRVNADRSRVSPAWDLFNETLENGVYKSLIVLHNYERVNLMEFPESVQGRISHIEAKLDAQT”, for which the protein production entry is “failed”.

Consider “MILATYFDGRTSRAQPVRLAVEQGEAVLFDPEGVPVRRAPLSALRVSERVKHAPRLVTFEDGAFCEIADPAEQQALNALLHRTGYREGAVVRAQNSWRLALGALALTLAALVLGYRYGLPWGAKVLAGMVPQRVEAQLGHASLAAFDQHWLEPSKLPQAQQARIRARFAALRAPDATHAYTIAFRDAGKLGANAFALPGGDIIVTDALVRLVGEGDGLMGVLAHEAGHVEYRHGLRQLIQSSAIGATAALLFGDISTILAGVPATMLTLRYSRDYERDADRYASRMLQSNGLSVAAFADVLQALEDSHGGARGTGSGAGRKEEDRDDASGFFSSHPLTRERIETLRRFDHTHGGSDAD”, for which the protein production entry is reported as “failed”.

As for “MILDEKNRKNLVFLILQFFDEEGYEESLHLLEQDSGVFFDFSYLSNAILNGNWKDADDYLSAFTSPEANTFSRKMFFGLFKSGGSEAVKIFSKDLRRIPVLKDDSFDDLVEVIAETCCVDKAPGRAKLCVDLHKLAESNPSLRGKLDFPSLNKSALLALISLLCPNCSRRKGGLKEDLICLILQFLYEAKYKNTLHKLEQETKVFFNLNYLAEVMKLGEYGKAEEYLGAFTNWEDNKYSKAMFLELQKLICLQSTEWEVATPSGSLDNMSLKIKLHASVAMLAKKNPVLKDELKFPSMEKSRLLTLVKQTMDWWTCNNTSSLENVPVVSYLCGTPSSMKFFFKKTVPRKKKPNEIKDPSQCNALVLPDCFSEEKIARLTYSPSGDYILALAEDATHKLWTWSSSQNEFCKPRLHQPQSGKTMENEMATSVQKSTSCFAVKGSYLFSTSGGKIAVFDLKNFEKVASFGSPTPMATYFIFIPGDLLAVGLDDGSIFIHCLSSRKVKEKLEGHDQKITCLAFSRCFNVLVSSDSDGKLCLWSTKSWVKLTSKNSTRKFCNRSNLESTSLVTHIQFDPYQIELLVVHDGWIGLYEVRTLDCRLQWIPDASDPAITSATYSSDGEIIYVGFRCGSIKIVDSKTFMTLCQINLTSFTQLSTSNISLEVYPTVVAAHPSHPNQISAGLSNGKVIVLQPLWSGGWGEAAPLEDNGDYSNDSDHSY”, the protein production result is reported as “failed”.

For “MILIRLEPGMDLMEEMRAAFSEGVVVTGIGSLHRVRIRTADESELTVEGPLEILSLQGTISPDGVHIHIAVADSEGRVTGGHLRGDSPVRTTAEIAVIPYQGVLRRVMDRRTGYRELLVLE”, the protein production result is reported as “failed”.

“MILKTLRNIFITIVVIAIIVIGGLFGLNAYSNQHPNNHSINDWNKLNPLAPTYEYYVKTQKPSKVEVVDKEKDFYIYHYNQTGYTKDGKSKKIEYTASKKLKQNHYLVVREKSHTIQSFEEVKKSKIPTKAKEKL”: the protein production entry is on record as “failed”.

“MILLSVHDSFLLDHNLPSACDKVFERLLDVTNSSFGFIATLQEDEDGQSLYLPAISNLAWDEETLTWYRHQRRTHGGLRLRKLDNLFGHVVTHNTVVCTNSLLRQKAGRDLPPIHPALHSLLGIPITHNGKTVGMIALANRREGYDQTMIELEHHHHHH”: the protein production entry was “failed”.

With “MILLTKITLLLFSSIFFSYILYMKSHSFKKIEPRKCSLNLMIIGMAFIVVGEFLNFISSFVKYRVDIYVSFCFILGAILFVIFAIIFLNSVDNTLKCLYGCVYEDAMTGVYNRNGIKKIFKDTINKEDNFFVMSFDLDETKIINDNFGHLVGDEYIISAARAIKEVLGAKGVVGRTGGDEFAAIYISTDQEELKKVKTHINKRASEIFNGSNINISMGFSTYKKDGKNMKELFDLADKRMYQDKKNKRKADQRF”, the protein production result is given as “failed”.

In the case of “MILMSNEIKNPKKRRKLVEYANGRSLEEINGTVKVPKNIGFWKALFMYSGPGALVAVGYMDPGNWSTSITGGQNFQYMLMSIILISSLIAMLLQYMAAKLGIVSQMDLAQAIRARTSKSLGIVLWILTELAIMATDIAEVIGAAIALYLLFHIPLAIAVFITVLDVLLLLLLTKIGFRKIEAIVVCLIMVILVVFVYQVALSNPNWGAVFSGLVPTTKAFETSPTIGGMTPLSGSLGIIGATVMPHNLYLHSAVSQTREIDHNDEEDVARTLRFSTWDSNIQLSFAFIVNSLLLVMGVAVFKSGAVQDPSFFGLFHALNDTSTLSNGILIGVAKTGVLSTLFAVALLASGQNSTITGTLTGQVIMEGFIHMRMPLWARRLITRLISVVPVLICVMITSGKGDLQEHEALNQLMNNSQVFLAFALPFSMIPLLMMTDSRVEMGDRFKNSWAVKILGWISVIFLTYLNMTGLPNSITAFFGANPSAGEVELAHIIAYMLVAVVLALLAWTVFELHKGNQRYELEMRSKAEAKEEA”, the protein production entry is “failed”.

For the sequence “MILNPQQRTKLDSRRDDLFYAAPRFVTHVDDFFLARLTDLYRQYLQPQMRVLDLMSSWVSHLPPELSFQEVVGHGMNAAELARNPRLDRYFVQNLNEELALPLEDASFNAVLMAVSVQYLQYPEATFTEIARILKPQGVVIVSFSNRMFFEKAIQAWREGSEGDRVQLVQTYINSTPSLKVIATHLPRLWPWRGFTDPFYAVVGQKQAVLEHHHHHH”, the protein production result is “not failed”.

For the sequence “MILNTEEYPISIGNEIKYTKEVYDCLQLLRLRTILKEYEVNLILDVGANEGQFASVLRDIGYVGTIISFEPLSKEYRLLSQAASKDSNWYTYNLALGKQNKEQILHVSDKSTFSSFLLSNSLCEQRFGKESIGDKNEVVSVRRLDNFLVEVVKNIDKMRIYLKMDTQGYDLEVFSGAGTLLKNIVALQSEVSVVPIYHSMPDMLYSISLFQEAGFSLSGMYPVTYVKPTLQVIEFDCLMVKADTKIS”, the protein production result was “failed”.

“MILNVAGPLGNPAPMEKFGKILAIGAYVGIAEVYPIAKAWQEIGNDVTTLHVTFEPMVILKDYFEKAVSRHIVEPVKIDQEKSFQENTKNVTKALTAKVKELLDNENWDLVFMVGPPGDQKAVFEVVKKYGIPMKVDLHPIMLEHHHHHH”: the protein production result is “not failed”.
